{
  "source": "patent US20250221953A1",
  "about": "(The University of Chicago, priority 2022, published 2025)",
  "molecules": {"B1": {"name": "LIPASE FROM PORCINE PANCREAS (protein, UniProt P00591 1-450, looked up)", "Pancreatic triacylglycerol …": "SEVCFPRLGCFSDDAPWAGIVQRPLKILPWSPKDVDTRFLLYTNQNQNNYQELVADPSTITNSNFRMDRKTRFIIHGFIDKGEEDWLSNICKNLFKVESVNCICVDWKGGSRTGYTQASQNIRIVGAEVAYFVEVLKSSLGYSPSNVHVIGHSLGSHAAGEAGRRTNGTIERITGLDPAEPCFQGTPELVRLDPSDAKFVDVIHTDAAPIIPNLGFGMSQTVGHLDFFPNGGKQMPGCQKNILSQIVDIDGIWEGTRDFVACNHLRSYKYYADSILNPDGFAGFPCDSYNVFTANKCFPCPSEGCPQMGHYADRFPGKTNGVSQVFYLNTGDASNFARWRYKVSVTLSGKKVTGHILVSLFGNEGNSRQYEIYKGTLQPDNTHSDEFDSDVEVGDLQKVKFIWYNNNVINPTLPRVGASKITVERNDGKVYDFCSQETVREEVLLTLNPC"}},
  "test_system": "Jurkat T cells",
  "type": "cell-based, human",
  "conditions": "IL-2 production level in treated group compared to control group; 48 hours treatment, then anti-CD3/anti-CD28 12 hours",
  "from_the_text": "Two preliminary screens were designed and performed.\nTo construct “blood chemical compound library for cell-based screening purposes, components such as antibodies that are difficult to distinguish due to a wide variety, and some supplements that only function at a whole organism level including fish oils and herbs were excluded. Physiological ranges of serum levels of individual blood chemicals are available in the human metabolome database (https://hmdb.ca/) and applied in the experimental design. For first screen 1a, Jurkat T cells were treated with blood chemical library for 48 hours and then activated with 2.5 μg/mL anti-CD3 and 0.5 μg/mL anti-CD28 antibodies for another 12 hours, followed by measurement of IL-2 level in medium supernatant using ELISA kit (Biolegend). For first screen 1b, 1×10^5 PD-1^+ Jurkat T cells were co-cultured with 2×10^4 H596 (PD-L1^+) cells in a well of 96-well plate for 60 hours, and then activated with 2.5 μg/mL anti-CD3 and 0.5 μg/mL anti-CD28 antibodies for another 12 hours, followed by measurement of IL-2 level in medium supernatant using ELISA kit. Please also refer to Resources Table and Table 1-2 for more details.",
  "data": [
    {"molecule": "B1", "values": [
      {"measurement": "Relative changed percentage (%)", "value": "−9.403", "unit": "%"}
    ]}
  ]
}
